This note sets out measurements from the RNAGym collection of RNA variant scans (doi:10.7554/elife.90254).

To fix the notation:
B1: OR4K15 (parent)
chain: GUUAACGGUCAUAGGCCAUGGAAACUAGGAGCACCAUUUCGCUGCCAGUGAAGAAAUGAACAAAGAAAAUCUGGGCCAGGCAGGCAUCAAAAGAAAUAGUCUUGCGCUCAACCAGAAAGUCUGUAAUCAUUUUAAGGGUA

The variants in this data set derive from B1. The experiment in a line: self-cleavage, relative activity (ratio to wild type); higher = more cleavage; in vitro, sequencing; the parent is a self-cleaving ribozyme.
Take A69G C71A: the self-cleavage was determined as 0.43.
In the case of A68U U100C, the self-cleavage turned out to be 2.4.
Turning to A68U U102A, the self-cleavage was 1.15.
For A68U U102C the value was 2.04.
With A69G U132C, the self-cleavage came to 1.56.
Turning to U70C U131A, the self-cleavage was 0.45.
Regarding A69G A95G, the self-cleavage worked out at 1.8.
As to A68G A94U, the self-cleavage was 2.3.
Turning to A68G A94G, the self-cleavage is 1.34.
Regarding A69G A98U, the self-cleavage is 1.35.
Turning to A69G A98G, the self-cleavage worked out at 0.49.
For A67G A111G the value was 0.02; for A69U U122A, 2.21.
For A69C G84U the value was 0.82; for A69G C112U, 0.01; for A67U A118G, 1.4.
Regarding U70C A114G, the self-cleavage is 0.12.
Turning to U70C A92G, the self-cleavage came out at 0.82.
With A68C U127G, the self-cleavage stood at 2.01.
Consider A69G A129U, for which the self-cleavage was 0.33.
As to U70C U87C, the self-cleavage was 0.09.
U70C U87A: the self-cleavage was determined as 0.61.
In the case of A69C A126G, the self-cleavage was found to be 0.51.
As to A66U A91G, the self-cleavage is 0.65.
On to A68G A89G, for which the self-cleavage turned out to be 2.04.
For the variant A67C A126G, the self-cleavage was 2.11.
Turning to U70A A91G, the self-cleavage turned out to be 1.22.
As to A67G A95G, the self-cleavage came out at 2.37.
Then A69U A91G, with 1.79.
Consider A69G U127C, for which the self-cleavage amounted to 0.82.
Turning to A69C U120C, the self-cleavage turned out to be 0.7.
Consider A68U A140U, for which the self-cleavage stood at 1.65.
Consider A67G A129U, for which the self-cleavage came out at 1.03.
Turning to A67G A129G, the self-cleavage was determined as 0.85.
For A67G A129C the value was 1.2; for A68U U97G, 1.94; for U70A C105U, 0.16.
Turning to A67G U70C, the self-cleavage came to 1.05.
Take U70C A90G: the self-cleavage was determined as 0.83.
Consider U70C C107U, for which the self-cleavage was found to be 0.02.
As to U70C U120C, the self-cleavage worked out at 0.25.
Turning to U70C U120A, the self-cleavage was determined as 0.8.
In the case of A67G U87A, the self-cleavage worked out at 1.28.
For A66U G106A the value was 0.02; for A67G G106A, 0.02.
Regarding A68U U103A, the self-cleavage worked out at 0.3.
Take A66U A78U: the self-cleavage came out at 0.32.
A67G C113U: the self-cleavage was 0.17.
For the variant A68G A78G, the self-cleavage was 0.3.
On to A68G A78U, for which the self-cleavage stood at 0.13.
In the case of A69U U127C, the self-cleavage is 1.46.
For A68G A117U the value was 0.82; for A68G A117G, 2.
For U70C A129G, the self-cleavage was 0.33.
For A66U G75C the value was 0.18; for A67G U130C, 1.25; for A69G A78U, 0.33.
Turning to U70A A135G, the self-cleavage amounted to 0.74.
Consider A69U A125G, for which the self-cleavage stood at 0.75.
Consider A67G G80A, for which the self-cleavage was 0.04.
A69G U102C: the self-cleavage was 2.06.
Then A69G U102A, with 0.58.
In the case of A69G A125G, the self-cleavage amounted to 0.39.
Then A68G A98U, with 0.78; and A68G A98G, with 0.16.
Take A67G U100C: the self-cleavage was 2.32.
Turning to A69G A90U, the self-cleavage amounted to 1.9.
With A68U A116G, the self-cleavage stood at 1.07.
Take U70C A91G: the self-cleavage was found to be 0.6.
As for A68G C105U, the self-cleavage turned out to be 0.14.
Consider U70C C88U, for which the self-cleavage is 1.54.
For A67U U100G, the self-cleavage stood at 1.34.
Then A66U U130C, with 1.34; and A68U A111G, with 0.02.
With A69G U131G, the self-cleavage came to 0.46.
Turning to A67G U97C, the self-cleavage came out at 1.74.
For A67G U132C the value was 1.66; for U70A U130C, 0.61.
Then A69G U130C, with 0.5; and A69G U130G, with 1.3.
With U70C A82G, the self-cleavage stood at 0.31.
U70C G119A: the self-cleavage amounted to 1.49.
Take A68U A78G: the self-cleavage turned out to be 0.27.
For U70C A98G, the self-cleavage amounted to 0.41.
Consider A67G U103A, for which the self-cleavage was 0.89.
Consider A67G U103G, for which the self-cleavage was 0.05.
As for A68G G84A, the self-cleavage worked out at 2.58.
For A68C A110G the value was 0.16; for A68U A125C, 1.36; for A68G C128U, 1.44.
Then A66U A95G, with 1.87.
Consider A67G G93U, for which the self-cleavage was found to be 1.17.
Then U70C G123A, with 1.18; and A69C A96C, with 1.03.
On to A68U A117G, for which the self-cleavage was determined as 0.37.
Then A68U U108A, with 0.05.
For U70C A116G the value was 1.52; for U70C A116U, 0.34.
For the variant A66U U87C, the self-cleavage came to 0.42.
As for U70C C121U, the self-cleavage stood at 1.42.
With A69G U122C, the self-cleavage was 0.43.
Regarding A67G A125G, the self-cleavage was 0.57.
As to A69U A114G, the self-cleavage amounted to 2.05.
A69G A117G: the self-cleavage came out at 1.44.
As for A69G A117U, the self-cleavage is 0.97.
Then A68U A89G, with 1.53; and A67G A135G, with 2.06.
In the case of A67U, the self-cleavage came out at 1.54.
As for A67G, the self-cleavage came to 1.1.
Take A67C: the self-cleavage turned out to be 1.83.
Regarding U70C A96G, the self-cleavage is 0.75.
For A68U G119A the value was 1.58; for A66U U102C, 1.8; for U70C A135G, 1.14.
On to A67G U122A, for which the self-cleavage came to 0.99.
For A67G U122C, the self-cleavage is 0.99.
Then U70C U102C, with 1.57.
Then A68U U132G, with 0.9; and U70C A110U, with 0.92.
For U70A A125G the value was 0.44.
Consider U70A U120C, for which the self-cleavage came out at 0.41.
On to A67U U122A, for which the self-cleavage was found to be 1.36.
With U70A A116U, the self-cleavage worked out at 0.79.
Take U70A C121U: the self-cleavage stood at 2.35.
For the variant A69G U100G, the self-cleavage amounted to 1.94.
On to A66U A86C, for which the self-cleavage stood at 1.36.
Then A68U A82U, with 0.25; and A68U A82G, with 0.75.
Consider U70A U139C, for which the self-cleavage stood at 1.06.
Consider A69G G73U, for which the self-cleavage was found to be 0.33.
For A67G G99U the value was 0.62; for U70C U122C, 0.09.
As for A67G A91U, the self-cleavage worked out at 0.99.
As for A68C U130A, the self-cleavage was 0.98.
In the case of U70C A117G, the self-cleavage amounted to 1.21.
As for A68G A129U, the self-cleavage was 1.42.
As to A68G A129C, the self-cleavage stood at 0.82.
As to A68G A129G, the self-cleavage stood at 1.05.
Then U70C U139A, with 1.3; and U70C U139C, with 0.7; and A68G U132C, with 1.38.
As for A68G U132A, the self-cleavage was 1.27.
As to A69G C109A, the self-cleavage is 0.37.
Take A66U A110G: the self-cleavage amounted to 0.14.
Turning to A68G G83A, the self-cleavage was determined as 1.73.
Take A69G C121A: the self-cleavage came to 2.02.
Regarding A67G C88U, the self-cleavage was found to be 1.97.
Take A67G U120A: the self-cleavage amounted to 1.38.
For A68G A91U, the self-cleavage is 1.44.
With A68G A91C, the self-cleavage is 1.44.
For A67U A82G the value was 0.9.
On to A68G U139C, for which the self-cleavage was found to be 0.95.
Take A69G U103C: the self-cleavage worked out at 0.73.
Take A67G A140U: the self-cleavage amounted to 1.93.
Regarding A68G U122C, the self-cleavage came out at 1.18.
As for U70A A89G, the self-cleavage worked out at 1.13.
For the variant A69G U108A, the self-cleavage came out at 0.02.
For A69U A78G, the self-cleavage is 0.32.
As for A67G C128U, the self-cleavage came out at 0.62.
For the variant A69U U103A, the self-cleavage came out at 1.87.
For A68G G137C the value was 1.12.
With A68G G137A, the self-cleavage came out at 1.06.
Consider A68C A92G, for which the self-cleavage amounted to 1.88.
Then A68G A86C, with 0.72; and A69U U131C, with 1.33.
Consider A66U U139A, for which the self-cleavage was 2.31.
Consider A67G A118U, for which the self-cleavage worked out at 0.81.
